Source: the supplement of paper PMC7125110
± gives the standard error. For some of these results: Variants at the floor of the assay were thinned out.

B1: glmS ribozyme (parent)
chain: AUAAAAGCGCCAGAACUACAGAAAUGUAGUUGACGAGGAGGAGGUUUAUCGAAUUUUCGGCGGAUGCCUCCAAA

How the values were obtained:
Details in all cases: with glucosamine-6-phosphate
glucosamine-6-phosphate [1] = variants of: B1; test: kcat; higher = faster cleavage; RNA array
Method in brief: (§1)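 Using a hybridised Cy3 probe at 37 °C, barcoded ribozyme variants transcribed in situ by E. coli RNA polymerase on sequenced MiSeq chips were monitored across tiles imaged over ~14 h. The flow contained glucosamine-6-phosphate from 40 μM to 10 mM in HEPES/KCl/Mg(OAc)2 buffer. Signals were normalised to baseline and to non-cleaving reference variants before per-tile medians were fit to one- or two-exponential decays to yield kobs. Weighted Michaelis–Menten fits across concentrations gave kcat and KM.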

glucosamine-6-phosphate [2] = variants of: B1; test: self-cleavage kobs at 40 uM GlcN6P; higher = faster cleavage; RNA array
Method in brief: as §1

glucosamine-6-phosphate [3] = variants of: B1; test: self-cleavage kobs at 160 uM GlcN6P; higher = faster cleavage; RNA array
Method in brief: as §1

glucosamine-6-phosphate [4] = variants of: B1; test: self-cleavage kobs at 640 uM GlcN6P; higher = faster cleavage; RNA array
Method in brief: as §1

glucosamine-6-phosphate [5] = variants of: B1; test: self-cleavage kobs at 2500 uM GlcN6P; higher = faster cleavage; RNA array
Method in brief: as §1

glucosamine-6-phosphate [6] = variants of: B1; test: self-cleavage kobs at 10000 uM GlcN6P; higher = faster cleavage; RNA array
Method in brief: as §1

glucosamine-6-phosphate [7] = variants of: B1; test: KM; higher = weaker cofactor use; RNA array
Method in brief: as §1

Variant | kcat (glucosamine-6-phosphate [1]) [s⁻¹] | self-cleavage kobs at 40 uM GlcN6P (glucosamine-6-phosphate [2]) [s⁻¹] | self-cleavage kobs at 160 uM GlcN6P (glucosamine-6-phosphate [3]) [s⁻¹] | self-cleavage kobs at 640 uM GlcN6P (glucosamine-6-phosphate [4]) [s⁻¹] | self-cleavage kobs at 2500 uM GlcN6P (glucosamine-6-phosphate [5]) [s⁻¹] | self-cleavage kobs at 10000 uM GlcN6P (glucosamine-6-phosphate [6]) [s⁻¹] | KM (glucosamine-6-phosphate [7]) [µM]
AUAAAAGCGCCAGAACUACAGAAAUGUAGUUGACGAGGAGGAGGAUUAUCGAAUUUUCGGCGGAUGCCUCAAAA [U45A C71A] | 0.00337 ± 0.0013 | 0.00019 ± 3.7e-05 | 0.000518 ± 0.00016 | 0.000907 ± 0.00022 | 0.00202 ± 0.00085 | 0.00396 ± 0.00073 | 
AUAAAAGCGCCAGAACUACAGAAAUGUAGUUGACGAGGAGGAGGAUUAUCGAAUUUUCGGCGGAUGCCUCUAAA [U45A C71U] | 0.0639 ± 0.022 | 0.00126 ± 0.00019 | 0.00507 ± 0.00093 | 0.012 ± 0.0029 |  | 0.0584 ± 0.019 | 2060 ± 810
AUAAAAGCGCCAGAACUACAGAAAUGUAGUUGACGAGGAGGAGGAUUAUCGAAUUUUCUGCGGAUGCCUCCAAA [U45A G59U] | 0.00047 ± 0.00017 | < 1e-05 |  |  | 5.25e-05 ± 1.3e-05 | 0.000152 ± 2.4e-05 | 
AUAAAAGCGCCAGAACUACAGAAAUGUAGUUGACGAGGAGGAGGAUUAUCGAAUUUUCGGCGGAUGCCUACAAA [U45A C70A] | 0.000375 ± 0.00017 |  | 2.63e-05 ± 1.1e-05 | 0.000179 ± 3.7e-05 | 0.000225 ± 3.4e-05 |  | 
AUAAAAGCGCCAGAACUACAGAAAUGUAGUUGACGAGGAGGAGGAUUAUCGAAUUUUCGGCGGAUGGCUCCAAA [U45A C67G] | 0.000766 ± 0.00012 |  |  | 0.000163 ± 2.6e-05 | 0.000606 ± 0.00012 | 0.0006 ± 6.8e-05 | 2290 ± 680
AUAAAAGCGCCAGAACUACAGAAAUGUAGUUGACGAGGAGGAGGAUUAUUGAAUUUUCGGCGGAUGCCUCCAAA [U45A C50U] | 0.000477 ± 0.00018 |  |  |  | 3.25e-05 ± 1.4e-05 | 0.000107 ± 1.3e-05 | 
AUAAAAGCGCCAGAACUACAGAAAUGUAGUUGACGAGGAGGAGGAUUAUCGAAUUUUUGGCGGAUGCCUCCAAA [U45A C58U] | 0.000219 ± 4.8e-05 | < 1e-05 |  |  | 9.07e-05 ± 1.6e-05 | 0.000149 ± 2.4e-05 | 4210 ± 1900
AUAAAAGCGCCAGAACUACAGAAAUGUAGUUGACGAGGAGGAGGAUUAUCGAAUUUUGGGCGGAUGCCUCCAAA [U45A C58G] | 0.000316 ± 8.7e-05 |  |  |  | 0.000129 ± 3.2e-05 | 0.000222 ± 4.9e-05 | 
AUAAAAGCGCCAGAACUACAGAAAUGUAGUUGACGAGGAGGAGGAUUAUCGAAUUUUAGGCGGAUGCCUCCAAA [U45A C58A] | 0.00117 ± 0.00038 |  |  | 0.000188 ± 3.8e-05 | 0.000822 ± 0.00019 | 0.000803 ± 0.00016 | 
